According to paper PMC9927553:
Residue numbers refer to the chain shown, from its start.

What was measured:
[1] = target: T1, LexA (Salmonella) (Salmonella enterica serotype Agona strain 47SA97) (UniProt B5F1Q6); assay: EMSA; details: EMSA: 40 ng DNA probe, 0-600 ng LexA, binding buffer E (composition not stated; Thermo E33075 EMSA kit), 10 uL, 20 min on ice; 6% native Tris-glycine PAGE …
T1 sequence: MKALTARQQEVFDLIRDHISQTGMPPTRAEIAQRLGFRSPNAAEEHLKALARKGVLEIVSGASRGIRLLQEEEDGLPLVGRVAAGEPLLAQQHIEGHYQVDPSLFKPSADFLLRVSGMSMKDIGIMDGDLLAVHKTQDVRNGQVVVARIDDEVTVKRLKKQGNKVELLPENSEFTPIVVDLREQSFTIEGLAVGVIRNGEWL

[2] = target: T2, LexA (E. coli) (Escherichia coli MG1655) (UniProt P0A7C2); assay: EMSA; details: EMSA: 40 ng DNA probe, 0-600 ng LexA, binding buffer E (composition not stated; Thermo E33075 EMSA kit), 10 uL, 20 min on ice; 6% native Tris-glycine PAGE …
T2 sequence: T1 sequence with L56I, D74E, S108N, T175K, E183Q, E200D

Sequence: ACACACCTGATTTATTCACTGATTAACTTTGTCATCAATCATAAATACCATGACTTTTTGATAATGCAACGCCAAATAAGTTGTTTTTTTACAGTATCATTTTATGGTGCTATGAAGATTTGCATTTCTGAACGATAATCTATAATCGGTTACATATTAATCAGGAGGCGT (double strand) [PsgaDC* probe]
- binding [1]: no binding
- binding [2]: no binding

Sequence: ACACACCTGATTTATTCACTGATTAACTTTGTCATCAATCATAAATACCATGACTTTTTGATAATGCAACGCCAAATACTGTGTTTTTTTACAGTATCATTTTATGGTGCTATGAAGATTTGCATTTCTGAACGATAATCTATAATCGGTTACATATTAATCAGGAGGCGT (double strand) [PsgaDC probe]
- binding [1]: binds
- binding [2]: binds

Sequence: AGTTGTTCCGCAGTAGCCATTATTCAATCTCCATAAGACGGGGCAACTTTACCAATTTTATACAATAAAGTCTGTGTAGTATGACAGGGTTTAAGCACTTAATCCCCTCTAGAATTTTGTACACTCACCACCCCTACATGATTATAAATAGTCGTTCTAGATACACCATATCGCCTAGCAACA (double strand) [PsgiAT probe]
- binding [1]: no binding
- binding [2]: no binding
